Laboratory results taken from US20240343803A1 (SHANDONG SIMCERE BIOPHARMACEUTICAL, published 2024).

Tests used:
[1] = target: T1, cynomolgus monkey PVRIG (Novoprotein, Cat NO. C09B) (cynomolgus monkey, UniProt A0A2K5WVV8 41-171); assay: ELISA, antigen coated
T1 construct: also called cynomolgus monkey PVRIG protein
T1 sequence: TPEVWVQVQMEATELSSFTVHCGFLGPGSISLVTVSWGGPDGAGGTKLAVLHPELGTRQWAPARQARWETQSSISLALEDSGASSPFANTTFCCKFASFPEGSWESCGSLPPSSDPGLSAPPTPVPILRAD
Procedure: (§1) The ELISA plate was pre-coated with 100 μL/well of 0.5 μg/mL human PVRIG-his (AcroBiosystems, Cat NO. PVG-H52H4) or cynomolgus monkey PVRIG (Novoprotein, Cat NO. C09B). The tested anti-PVRIG humanized antibodies were serially diluted (initial concentration 3 nM, 3-fold serial dilution), added into the plate (100 μL/well) and incubated with shaking at room temperature for 1.5 hours. […] A HRP substrate, TMB (Thermo, Cat NO. 34029) was added into wells after washing the plate again for color development. After adding a termination solution to terminate the reaction, the absorbance value was read by a microplate reader (MD i3×). An antibody binding curve was drawn with concentration of antibodies as the abscissa and the corresponding OD value as the ordinate. The EC50 value was calculated by using a Four Parameter Logistic Fit (GraphPadPrism9). The smaller the EC50 value, the stronger the ability of the antibodies binds to human or cynomolgus monkey PVRIG. The binding effect of the humanized antibodies was normalized to the corresponding parental antibodies. If the percentage value is higher than 100%, the binding effect of humanized antibodies is better than that of parental antibody.

[2] = target: T2, human PVRIG-his (AcroBiosystems, Cat NO. PVG-H52H4) (human, UniProt Q6DKI7 41-171, limits assumed); assay: ELISA, antigen coated
T2 construct: also called human PVRIG protein
T2 sequence (looked up): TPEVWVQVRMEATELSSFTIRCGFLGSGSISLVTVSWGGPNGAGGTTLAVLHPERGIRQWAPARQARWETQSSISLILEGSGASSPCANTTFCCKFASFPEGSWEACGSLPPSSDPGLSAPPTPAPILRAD
Procedure: as §1

[3] = target: T3, cynomolgus monkey PVRIG on FlpinCHO-cyno PVRIG cells (cynomolgus monkey, UniProt A0A2K5WVV8 41-322); assay: FACS, FlpinCHO-cyno PVRIG cells
T3 construct: whole, on cells
T3 sequence: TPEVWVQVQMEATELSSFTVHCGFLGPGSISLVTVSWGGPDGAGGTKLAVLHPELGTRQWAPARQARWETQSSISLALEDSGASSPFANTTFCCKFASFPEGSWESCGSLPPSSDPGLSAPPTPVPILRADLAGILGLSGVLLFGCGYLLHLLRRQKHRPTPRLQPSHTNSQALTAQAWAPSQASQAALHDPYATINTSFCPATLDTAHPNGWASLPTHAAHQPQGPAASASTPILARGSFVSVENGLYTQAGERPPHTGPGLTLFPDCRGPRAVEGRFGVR
Procedure: The antibodies were diluted from the highest concentration of 46 nM (two-fold concentration) with staining buffer by 3.3-fold serial dilution. The diluted antibodies were added to the well containing 50 μL of cell suspension. The plate was placed on a microplate shaker at 400 rpm for 1 minute to fully mix the antibodies and cells, and then incubated at 4° C. for 30 minutes. After the incubation, the cells were washed twice with staining buffer (200 μL per well) and centrifuged at 350×g for 5 minutes to discard the supernatant. The PE goat anti-human IgG Fc antibody (ebioscience, 12-4998-82) was diluted 250 times with staining buffer, added into the washed wells (100 μL per well), mixed well, and stained at 4° C. for 30 minutes. After staining, the cells were washed twice with staining buffer, finally resuspended with 200 μL staining buffer and analyzed by flow cytometry (BD, Canto II). The stronger the signal, the stronger the ability of the antibodies binds to PVRIG. An antibody binding curve was drawn with concentration of antibodies as the abscissa and the corresponding Mean Fluorescence Intensity (MFI) as the ordinate. The AUC value of the curve was calculated by using a Four Parameter Logistic Fit (GraphPadPrism9). The stronger the AUC value, the stronger the ability of the antibodies binds to FlpinCHO-PVRIG and FlpinCHO-cyno PVRIG. […] The binding activity of the antibodies was normalized to the positive control COM701-hIgG1 and SRF813-hIgG1. The higher the percentage value, the stronger the binding ability of the antibodies.
The methods refer to Example 19. The stronger the AUC value, the stronger the ability of the humanized antibodies binds to FlpinCHO-human/cyno PVRIG.

[4] = target: T4, Fusion protein of extracellular domain of human TIGIT and mouse IgG2a Fc fragment (human TIGIT ECD-mFc) (human); assay: FACS; blocking of TIGIT ECD-mFc binding to CHO-K1 CD112 cells
T4 construct: The entry includes the signal peptide (limits not recoverable) and the mouse IgG2a Fc
T4 chain: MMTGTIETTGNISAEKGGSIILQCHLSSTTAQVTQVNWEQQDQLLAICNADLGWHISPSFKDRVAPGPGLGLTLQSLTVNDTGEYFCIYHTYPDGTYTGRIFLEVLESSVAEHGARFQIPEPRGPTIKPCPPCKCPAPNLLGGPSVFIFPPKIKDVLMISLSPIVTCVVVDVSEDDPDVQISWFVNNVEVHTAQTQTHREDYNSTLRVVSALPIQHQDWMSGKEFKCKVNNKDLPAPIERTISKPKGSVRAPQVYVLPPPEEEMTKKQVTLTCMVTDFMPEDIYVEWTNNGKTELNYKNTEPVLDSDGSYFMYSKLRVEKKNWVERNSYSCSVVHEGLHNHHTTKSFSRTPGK
Procedure: The collected CHO-K1 CD112 cells were washed once with PBS (Hyclone, CAT #SH30256) and resuspended to 2×10⁵/40 μL with 1% BSA-PBS. The anti-TIGIT humanized antibodies were diluted to 600 nM with 1% BSA-PBS (diluted by 2.5-fold serial dilution for 12 concentration points). The TIGIT ECD-mFc was diluted with 1% BSA-PBS to 6 μg/mL. The 40 μL cells were then mixed with 40 μL diluted antibodies and 40 μL diluted TIGIT ECD-mFc, and then incubated at 4° C. for 60 minutes. […] The cell samples were washed twice with PBS, resuspended to 100 μL/well with 1% BSA-PBS and then analyzed by flow cytometry (BD, Canto II). […] (f) The binding activity of anti-TIGIT humanized antibodies to human PBMCs detected by FACS.

B1: PVRIG-A118-H3 (Fc fusion)
chain: EVQLVESGGGLVQPGGSLRLSCAASETYFDLYVMGWYRQAPGKDRELVATITYTGSIKYVDSVKGRFTISRGDAKNSLYLQMNSLRAEDTAVYYCNADPSGLGRKVYWGQGTMVTVSS
notes: humanized variant of PVRIG-A118; also called A118.VH3; not shown: constant part not restated for the humanized forms; parents are VHH-hinge-CH2-CH3 of human IgG1; detected by anti-human
% relative activity parental antibody/tested antibody [1]: 34% | EC50 [1]: 0.0794 nM | % relative activity parental antibody/tested antibody [2]: 100% | EC50 [2]: 0.05 nM | AUC % to COM701-hIgG1 [3]: 21% | AUC % to SRF813-hIgG1 [3]: 25.6% | AUC % to parental Ab [3]: 33.6%

B2: PVRIG-A118-H1 (Fc fusion)
chain: EVQLVESGGGLVQPGGSLRLSCAASETYFDLYVMGWYRQAPGKDRELVATITYTGSIYYVDSVKGRFTISRDNAKNSLYLQMNSLRAEDTAVYYCNADPSGLGRKVYWGQGTMVTVSS
notes: humanized variant of PVRIG-A118; also called A118.VH1; not shown: constant part not restated for the humanized forms; parents are VHH-hinge-CH2-CH3 of human IgG1; detected by anti-human
% relative activity parental antibody/tested antibody [1]: 4.62% | EC50 [1]: 0.585 nM | % relative activity parental antibody/tested antibody [2]: 110% | EC50 [2]: 0.0456 nM | AUC % to COM701-hIgG1 [3]: 11.5% | AUC % to SRF813-hIgG1 [3]: 14.1% | AUC % to parental Ab [3]: 18.5%

B3: PVRIG-A118-H2 (Fc fusion)
chain: EVQLVESGGGLVQPGGSLRLSCAASETYFDLYVMGWYRQAPGKDRELVATITYTGSIKYVDSVKGRFTISRDNAKNSLYLQMNSLRAEDTAVYYCNADPSGLGRKVYWGQGTMVTVSS
notes: humanized variant of PVRIG-A118; also called A118.VH2; not shown: constant part not restated for the humanized forms; parents are VHH-hinge-CH2-CH3 of human IgG1; detected by anti-human
% relative activity parental antibody/tested antibody [1]: 4.55% | EC50 [1]: 0.594 nM | % relative activity parental antibody/tested antibody [2]: 102% | EC50 [2]: 0.0491 nM | AUC % to COM701-hIgG1 [3]: 14.6% | AUC % to SRF813-hIgG1 [3]: 17.8% | AUC % to parental Ab [3]: 23.4%

B4: TIGIT-002-H4L3 (antibody, V domains shown)
VH: EVQLQESGPGLVKPSETLSLTCAVSGYSITSDSWNWIRQPPGKKLEYIGYISYSGNTYYNPSLKSRVTISRDTSKNQFSLKLSSVTAADTAVYYCARLDFSNYGGAVDYWGQGTTVTVSS
VL: DIVMTQSPDSLAVSLGERATINCKASQNVRTAVAWYQQKPGQSPKLMIYSASYRYTGVPDRFSGSGSGTDFTLTISSLQAEDVAVYYCQQYYTTPWTFGGGTKVEIK
notes: Humanized anti-TIGIT antibody
IC50 [4]: 3.49 nM

B5: TIGIT-005-H2L1d (antibody, V domains shown)
VH: EVQLVQSGAEVKKPGASVKVSCKASGYAFTNYLIEWVRQAPGQRLEWMGVINPGSGGTNYKEKFKGRVTITADKSSSTAYMELSSLRSEDTAVYYCARGEYFFFDYWGQGTTVTVSS
VL: DIVMTQSPDSLAVSLGERATINCKASQHVSNAVAWYQHKPGQSPKLLIYSASYRYTGVPDRFSGSGSGTDFTLTISSLQAEDVAVYYCQQHYNTPHTFGGGTKVEIK
notes: Humanized anti-TIGIT antibody with NG-site mutation in VL
IC50 [4]: 3.49 nM

B6: TIGIT-006-H5L3 (antibody, V domains shown)
VH: EVQLQESGPGLVKPSETLSLTCAVSGYSMTSDYWNWIRQPPGKKLEYIGYISYSGRTYYNPSLKSRVTISRDTSKNQFSLKLSSVTAADTAVYYCARGDYSNYGGAMYDWGQGTTVTVSS
VL: DIVMTQSPDSLAVSLGERATINCRASQGVSTTIAWYQQKPGQSPKLLIYSASYRYTGVPRFSGSGSGTDFTLTISSLQAEDVAVYYCQQYYSSPFTFGGGTKVEIK
notes: Humanized anti-TIGIT antibody
IC50 [4]: 4.65 nM

B7: TIGIT-070-H1L1 (antibody, V domains shown)
VH: EVQLVQSGAEVKKPGASVKVSCKASGYTFTNYYMHWVRQAPGQRLEWMGRIDPDSGGSKYNEKFKSRVTITVDKSASTAYMELSSLRSEDTAVYYCAREGHYGFYSDYWGQGTTVTVSS
VL: DIQMTQSPSSLSASVGDRVTITCRVSENIYSYLAWYQQKPGKSPKLLIYNAKTLAEGVPSRFSGSGSGTDFTLTISSLQPEDFATYYCQHHYGNPLTFGPGTKVDIK
notes: Humanized anti-TIGIT antibody
IC50 [4]: 4.3 nM
